B1: library; numbered along this chain (parent)
chain: MRKPRAAVGSGHRKQAASQEGRQKHAKNNSQAKPSACDGLARQPEEVVLQASVSSYHLFRDVAEVTAFRGSLLSWYDQEKRDLPWRRRAEDEMDLDRRAYAVWVSEVMLQQTQVATVINYYTGWMQKWPTLQDLASASLEEVNQLWAGLGYYSRGRRLQEGARKVVEELGGHMPRTAETLQQLLPGVGRYTAGAIASIAFGQATGVVDGNVARVLCRVRAIGADPSSTLVSQQLWGLAQQLVDPARPGDFNQAAMELGATVCTPQRPLCSQCPVESLCRARQRVEQEQLLASGSLSGSPDVEECAPNTGQCHLCLPPSEPWDQTLGVVNFPRKASRKPPREESSATCVLEQPGALGAQILLVQRPNSGLLAGLWEFPSVTWEPSEQLQRKALLQELQRWAGPLPATHLRHLGEVVHTFSHIKLTYQVYGLALEGQTPVTTVPPGARWLTQEEFHTAAVSTAMKKVFRVYQGQQPGTCMGSKRSQVSSPCSRKKPRMGQQVLDNFFRSHISTDAHSLNSAAQ

Variants of: B1
Experiment: 8OG:A repair function score (normalized; synonymous = 0, nonsense = -1) (normalized log-likelihood score); higher = more repair activity (WT-like)
Settings: with 8OG:A DNA repair reporter (GFP) in HEK-293 MUTYH KO cells
Method: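 Saturation mutagenesis (NNN codon scan) of the MUTYH cDNA (521-aa nuclear isoform NM_001048174.1 / NP_001041639), stably expressed under doxycycline induction in HEK-293 MUTYH knockout cells. Cells were co-transfected with an 8OG:A-bearing GFP repair reporter plus mCherry and sorted 72 h later into GFP+ and GFP− bins, three replicates per tile. The Rosace log2 enrichment (GFP+ vs GFP−) was converted per tile to a normalized function score with synonymous variants centered at 0 and nonsense variants (codons 1-471) at -1; low-abundance variants were removed.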

8OG:A repair function score: each site, then its substitutions
D91: A 0.0065 | M 0.00436 | T -0.0112 | C -0.0114 | G -0.00708 | R 0.00216 | Q -0.103 | H 0.0064 | P -0.0949 | N -0.0978 | F 0.00319 | I 0.00656 | Y 0.00276 | W -0.00643 | S -0.00182 | K 0.00215 | E -0.0053 | L 0.00629 | V 0.0064
L95: W -0.127 | I -0.0112 | H -0.053 | P -0.00578 | R -0.104 | T -0.0603 | N -8.88e-05 | A 0.00636 | Q -0.0116 | S -0.00398 | C -0.0111 | K -0.0064 | M 0.0014 | D 0.00648 | V -0.00351 | G 0.00593 | E -0.00548 | F -0.0596 | Y -0.0972
M93: Q 0.00486 | G -0.0185 | N 0.00661 | L -0.0284 | P -0.0336 | K 0.00623 | D 0.0046 | Y -0.0084 | I -0.0705 | V 0.00114 | C 0.00101 | T 0.00168 | A 0.00637 | E 0.0066 | R 0.00556 | H -0.01 | F 0.00598 | S -0.0236 | W -0.00669
R98: G -0.574 | A -0.175 | F -0.114 | D -0.438 | C -0.578 | E -0.275
D94: K -0.193 | Q -0.215 | W -1 | A -0.329 | I -0.0559 | H -0.136 | M -0.104 | Y -0.33 | V -0.128 | R -0.182 | T -0.178 | P -0.157 | G -0.231 | L -0.105 | C -0.112 | E -0.625 | N -0.0146 | F -0.287 | S -0.0913
E92: A -0.0671
